A short description of the series: soluble on expression in E. coli; label from the status in PepcDB or PDB records.
Consider “MLRLQMTDGHISCTAVEFSYMSKISLNTPPGTKVKLSGIVDIKNGFLLLNDSNTTVLGGEVEHLIEKWELQRSLSKHNRSNIGTEGGPPPFVPFGQCVSRVQVDSRELDRRKTLQVTMPVKPTNDNDEFEKQRTAAIAEVAKSKETKTFGGGGGGARSNLNMNAAGNRNREVLQKEKSTKSEGKHEGVYRELVDEKALKHITEMGFSKEASRQALMDNGNNLEAALNVLLTSNKQKPVMGPPLRGRGKGRGRIRSEDEEDLGNARPSAPSTLFDFLESKMGTLNVEEPKSQPQQLHQGQYRSSNTEQNGVKDNNHLRHPPRNDTRQPRNEKPPRFQRDSQNSKSVLEGSGLPRNRGSERPSTSSVSEVWAEDRIKCDRPYSRYDRTKDTSYPLGSQHSDGAFKKRDNSMQSRSGKGPSFAEAKENPLPQGSVDYNNQKRGKRESQTSIPDYFYDRKSQTINNEAFSGIKIEKHFNVNTDYQNPVRSNSFIGVPNGEVEMPLKGRRIGHIKPAGPVTAVPCDDKIFYNSGPKRRSGPIKPEKILESSIPMEYAKMWKPGDECFALYWEDNKFYRAEVEALHSSGMTAVVKFIDYGNYEEVLLSNIKPIQTEAWEEEGTYDQTLEFRRGGDGQPRRSTRPTQQFYQPPRARN”, for which the “soluble on expression in E. coli” value is on record as “not soluble”. “LVHLSVHNYAIVEHLDLELDRGMSVITGETGAGKSIMLDALGLTLGDRADSGVVRPGADKADILATFDLGDIPEAEAWLKERDLDNDGPCILRRVITAEGRSRSYINGSPCPQGDLKALGELLIDIHSQHEHQSLLKTDTHRRLLDEYAGATDLARQVHLAAQRWRQTRQELERL”: the “soluble on expression in E. coli” value is “not soluble”. With “MGHHHHHHSHMKPHFRNTVERMYRDTFSYNFYNRPILSRRNTVWLCYEVKTKGPSRPRLDAKIFRGQVPRSFIRAPFQVLSSPFGQCAPPHGTAQVQWPPQLTAGREQGRP” the entry was “not soluble”; with “MSLKLHKGIKEYECKECHRRFAQKVNMLKHCKRHTGIKDFMCELCGKTFSERNTMETHKLIHTVGKQWTCSVCDKKYVTEYMLQKHVQLTHDKVEAQSCQLCGTKVSTRASMSRHMRRKHPEVLAVRIDDLDHLPETTTIDASSIGIVQPELTLEQEDLAEGKHGKAAKRSHKRKQKPEEEAGAPVPEDATFSEYSEKETEFTGSVGDETNSAVQSIQQVVVTLGDPNVTTPSSSVGLTNITVTPITTAAATQFTNLQPVAVGHLTTPERQLQLDNSILTVTFDTVSGSAMLHNRQNDVQIHPQPEASNPQSVAHFINLTTLVNSITPLGSQLSDQHPLTWRAVPQTDVLPPSQPQAPPQQAAQPQVQAEQQQQQMYSYEGHHHHHH”, “not soluble”. Then “MPANIDGTLIKDPMVLNIMLFGSDERPGETGYGRSDTMMLLSIDNRNKKLKLTSFMRDTYVNVPEWGDTKLTHAYSYGGPALAIETIERNFGIDIDRYAVVYFDTFPGIVDTLGGIEVEMTQTEADVMNESVGPEFANFTEGKNTLNGATALVYVRIRYGVGDDFGRTQRQRDFMLQVLNKVKGTRDVGTLLTLLTKILPGVTTNISVNEMAGLAGGAISSYMDYPMYQFRLPEDGAFSAVDVDAGNVLAIDDWDAAREHLQRFIYEDTVDPIYGPLEHHHHHH”, with “soluble”. Then “AHHHHHHGSPPIIDPHILRSLHRSELRRRILHYLYEIYPSATYLSEIARVVSSDPSNVRGALVGLGNRYNSESSLVYLGLVEEIVNNGFKYYRLTEYGKKVVEMLKDYQTYYRKFM”, with “not soluble”. As to “MGRIKRGLDYFPMSTSFMHDRMVRRIMRREGDSAFATLVETLSYIYAGKGYYISVGDEFYEELVDSLYSTELDDVKRIISLSVEYGLFDAGLFRQYNILTSADIQRQYLFITKRRSSALIEPDYCLLESEEITSYRSSQSGKSSTDDSLDSECAEALNGDADHKTACTVTSSFDSVTMEDEIATSGTQNKRKQIKINQNKVNHLPNPPQGGDEGGKYLKSRTAVTQEDIDCLQPPCDGVQRNFQGLTDNLRLYKVPPSEQYAIILKSNFGAIGNPVWKGFNTIRGSNGKIRLPGHYLLSIIN”, the “soluble on expression in E. coli” value was “not soluble”. As for “MGSDKIHHHHHHMMKMERKNVWHHRKKEEIEAFSKEYMEFMSKAKTERMTVKEIKRILDESGFVPLEDFAGDPMNMTVYAVNRGKAIAAFRVVDDLKRGLNLVVAHIDSPRLDFKPNPLIEDEQIALFKTHYYGGIKKYHWLSIPLEIHGVLFKNDGTEIEIHIGDKPEDPVFTIPDLLPHLDKEDAKISEKFKGENLMLIAGTIPLSGEEKEAVKTNVLKILNEMYGITEEDFVSGEIEVVPAFSPREVGMDRSLIGAYGQDDRICAYTALRALLSANPEKSIGVIFFDKEEIGSDGNTGAKARFYLKALRQILKMQGAKDSEFVLDEVLENTSVISGDVCAAVNPPYKDVHDLHNAPKLGYGVALVKYTGARGKYSTNDAHAEFVARVRKVLNEQGVIWQVATLGKVDQGGGGTIAKFFAERGSDVIDMGPALLGMHSPFEISSKADLFETYVAYRSLMEKL”, the “soluble on expression in E. coli” value was “not soluble”. With “PKYQANTQILVNQTKGDNPQFMAQEVQSNIQLVNTYKEIVKSPRILDEVSKDLNDKYSPSKLSSMLTITNQENTQLINIQVKSGHKQDSEKIANSFAKVTSKQIPKIMSVDNVSILSKADGTAVKVAPKT” the entry was “not soluble”.

Regarding “MLNQNERHQILEEAVEWLMQMKQKPLNEIELLEFEQWKNRSQLHQSIWQQAYQLEEKFQSLPSHIAIPIIQKQKSHPDIWLMVLSCLPLLGLLYVMNQQQQWTADYRNGFHAPQTVKLPDGGKIILNSNTAIDVKYTAKKRDIILRKGEIWIETQHDVKNRPFTVYTQQGQAQALGTKYLVKIDQKSSQIAVLKGAVKVQPKTNNQYVIITKGQKISINQYNLHSVEYFDHSEIGWTKGLIMVNEIPLSEFVQKLRPYQSALIYLDPEVSNIKISGTFPIANMAQLYEMLENTYAIDVDRYAMNHIIRIRQKK”, the “soluble on expression in E. coli” value is “not soluble”.

For “MTKLTIFYDGTCPLCAKEMKALRQHDHKQEINTVDIYSDAFSAYPQINPDRANTILHALDNQGNLLLGLDVTYRAWQLVGRGWLYAPLRWPLIRPVADWLYLRFAQNRYRISYWLTGTSRCNSGRCSR”, the “soluble on expression in E. coli” value is on record as “not soluble”. With “MAHHHHHHSLKCILLNQAEELPIEFLPKDGVYGKGKLFDSRNMEIENFTESDILQDARRAAEAHRRARYRVQSIVRPGITLLEIVRSIEDSTRTLLKGERNNGIGFPAGMSMNSCAAHYTVNPGEQDIVLKEDDVLKIDFGTHSDGRIMDSAFTVAFKENLEPLLVAAREGTETGIKSLGVDVRVCDIGRDINEVISSYEVEIGGRMWPIRPISDLHGHSISQFRIHGGISIPAVNNRDTTRIKGDSFYAVETFATTGKGSIDDRPPCSHFVLNTYKSRKLFNKDLIKVYEFVKDSLGTLPFSPRHLDYYGLVKGGSLKSVNLLTMMGLLTPYPPLNDIDGCKVAQFEHTVYLSEHGKEVLTRGDDY” the entry was “not soluble”; with “MRPYKRVLIKLSGGALADQTGNSFNSKRLEHIANEILSIVDLGIEVSIVIGGGNIFRGHLAEEWGIDRVEADNIGTLGTIINSLMLRGVLTSKTNKEVRVMTSIPFNAVAEPYIRLRAVHHLDNGYIVIFGGGNGQPFVTTDYPSVQRAIEMNSDAILVAKQGVDGVFTSDPKHNKSAKMYRKLNYNDIVRQNIQVMDQAALLLARDYNLPAHVFNFDEPGVMRRICLGEHVGTLINDDVSMLVREKLEHHHHHH”, “not soluble”. Turning to “RQPSSLPEGLPAPLEKRVKELAQAARAAEGESRQKFFTQDINGILLDIEAQTRELSSQVRSGVYAYLASFLPCSKDALLKRARKLHLYEQGGRLKEPLQKLKEAIGRAMPEQMAKYQDECQAHTQAKVAKMLEEEKDKEQRDRICSDEEEDEEKGGRRIMGPRKKFQWNDEIRELLCQVVKIKLESQDLERNNKAQAWEDCVKGFLDAEVKPLWPKGWMQARTLFKESRRGHGHLTSILAKKKVMAPSKIKVKESSTKPDKKVSVPSGQIGGPIALPSDHQTGGLSIGASSRELPSQASGGLANPPPVNLEDSLDEDLIRNPASSVEAVSKELAALNSRAAGNS”, the “soluble on expression in E. coli” value is “not soluble”.

Take “MAPTNLTKKPSQYKQSSRKGKKAWRKNIDLSDVEQYMEKKIDHEITHGTSDITSLQNDALFHVDVEGDEILKNKLIKRKQIKKVLKSKEILDAVKTNSKIAALNHHKNSSGNPNKIQGVSKHELKKLMALAGRVHGESKIKNRVAKDGLVKTTAGDLWGEESNSKKQKVKLPSGIKLDVEKKDQIPEELLKKSTTSWSTASVRPSTLDIEPIAVKEFTEIPHAGKSYNPNNKAWSELINKEYKEEKAREDERIALEKYKERIRHLMETLDDNEEEESSSNEEEEEEEEENENENESTQCSGSDKEIKLSINKPVKNKKKTKYQRNKAKRHEEKVKLQQELKELRQRVKDLEEVINSEETEILSAIESDSNKVKKSKKNKKHKLGTKYSVIDERLEIKFSDELSDSLRKLKPEGNLLYDTVRKLQSSGKVETRVPVRKGRKYKQKITEKWTHKDFK”: the “soluble on expression in E. coli” value is given as “not soluble”. With “MKVTAMDIYKLLPKTNCGKCGEASCMAFAAKLSQKEAELSACPQLKGADFEKLANMLAPAVREIKIGTGDRAVTIGGDEVLYRYELTYYNPTAVAVDLSDDMDDSAFDQKLVKIKNLEFERTGEILKLNAVALRNKSGDAEKFKKAAEKLKDSEIPVILCSFDPKAMDAALDVIGSKRPLIYAATENNIDEMSELALKHNCPISLFVPNDLEKMKQLSRKLRESGVKDIVLDPGTYIGEAIGDTMDNFIMIRRLAVEEKDDDFRFPILAVPAVCWINPEEDEILTKMKEATTAAALMNRYADVMILHGVDIWEMMPVLTLRQSLYTDPRKPQSVEAKIYEFGTVDENSPVIMTTNFALTYYTVAGDLKSGKVNCYLLVLDTNGKAVDVAVAGGQFNGKAAAELMKETGIEKLVNHKKLIIPGLAASVSGDIEDQSGWEVIVGTRDSSEVPAFLAKIW” the entry was “not soluble”. On to “MYFVDRKKLEETLSYMEQMLDRYKAEERWDEPLRQLALERIAHIVIEAVLDVGNAMIDGFIMRDPGSYNDIIDILADEQVISPADADRLKAFIAHRKMLVHEYARVDHAKLLADLNEHLPALEAYPKAVRAYLENELGPVSAFRN”, for which the “soluble on expression in E. coli” value was “soluble”. Then “MGHHHHHHSHMAFCAILLVPSLCRMPSLPTSPWAFPVHWAGFMFKPLDWQGNDFFPPQDEVLAPLSWHKNTFKA”, with “not soluble”; and “MSLNANRPIINLDLDLLRTFVAVADLNTFAAAAAAVCRTQSAVSQQMQRLEQLVGKELFARHGRNKLLTEHGIQLLGYARKILRFNDEACSSLMFSNLQGVLTIGASDESADTILPFLLSRISSVYPKLALDVRVKRNAYMVDMVKSQEVDLVVTTNQPHSLDCLNLRTSPTHWYCAAEYVLQRGEPVPLVLLDDPSPFRDMVLETLNAAGIPWRLAYVASTLPAVRAAVKAGLGVTARPVEMMSPDLRVLGAADGLPPLPDTEYLLCRDPNSQNELAMVIFHAMESYQNEGHHHHHH”, with “soluble”; and “DPHAYEHNLKSWVGNTPVFATVNQLDLDEEQSTLLKGEVGVDWYWMGYEAGKYLAERHPKGSGKTNIALLLGPRTRGGTKPVTTGFYEAIKNSDIHIVDSFWADNDKELQRNLVQRVIDMGNIDYIVGSAVAIEAAISELRSADKTHDIGLVSVYLSHGVYRGLLRNKVLFAPTDKMVQQGRLSVMQAAHYLRHQPYEKQASPIIKPLTPKTLHDDTIEESLSPSEYRPTFSIKAVD”, with “not soluble”. Then “TAQIKGLTQAQRNANDGISLAQTAEGALGEISNNLQRIRELAVQASNGTNTQTDRDALQAEVTQLQSEIQRVAEQTSFNGQKLLDGSFNGVQFQIGANAGETIGVSKIMNAQTASLGGSLTRTTSTIDATDLTKYDTAMAAGDLTINGVDVGKIDAASTAQERAAQLTEAINRVSSQTNVGASYDKTTGQVTLTSNAAIAVAGAANDATVAGWANNATTGTATTTTGINSLTVSSFTNAQQTITQIDNALKDINTARADLGAVQNRFTSTVANLQSMTENLSSALEHHHHHH”, with “soluble”.

These data come from the DeepSol protein solubility set.
